Source: publication PMC2480485 (Journal of Biomolecular Nmr, 2008)

Columns and labels:
[1] = biological target: mouse Src SH3 domain, residues 85-142 (mouse) (UniProt P05480); assay: NMR titration
[2] = biological target: mouse Src SH3 domain, residues 85-142 (mouse) (UniProt P05480); assay: paramagnetic relaxation enhancement NMR
[3] = biological target: mouse Src SH3 domain, residues 85-142 (mouse, UniProt P05480-2 85-142); assay: NMR titration

Molecule: peptide P3Tm (RALP-TOAC-IPKL, TOAC within the core binding motif of the FAK peptide)
- Kd [1]: 900 µM
- fraction of protein bound [2]: 44%

B1: peptide P3 (unlabelled control peptide derived from focal adhesion kinase, RALPSIPKL) (peptide)
peptide: Ac-RALPSIPKL-NH2
- Kd [3]: 56 ± 11 µM
